Data on two substances can be found in PMC6199149.

Assay [1] has as its target nuclear dUTP nucleotidohydrolase (nuclear isoform of dUTPase), endogenous (human (endogenous in U-2 OS, Saos2, A549, 18Co, HeLa)). The experiment in a line: non-reducing SDS-PAGE with western blot. (In general: A western blot detects proteins with antibodies after separation by electrophoresis.)
Assay [2] has the same target. The experiment in a line: cross-linking.
The target in assay [3] is recombinant Wt nuclear dUTPase with N-terminal hexahistidine tag, from E. coli (human). Conditions: scale: pmol of dUTP per minute per ng of protein.

In general, stoichiometry N refers to the number of molecules, sites or subunits per partner or assembly. Take “nuclear dUTP nucleotidohydrolase (nuclear isoform of dUTPase), endogenous (enzyme)”: the stoichiometry N in assay [1] and in assay [2] was 2 in each case.

As to “recombinant Wt nuclear dUTPase with N-terminal hexahistidine tag, from E. coli (enzyme)”, the dUTPase enzymatic assay (37°C, 5 min, no reducing agent) in assay [3] came out at 7.27.
